Results published in patent US20130090249A1 (CENTRE NATIONAL DE LA RECHERCHE SCIENTIFIQUE CNRS, published 2013).

How the values were obtained:
DN-Lingo-1-HA = target: T1, DN-Lingo-1-HA (human, UniProt Q96FE5 42-577); assay: BRET competition in live HEK-293 cells; the competitor may take the place of either the RLuc or the YFP partner
T1 construct: Residues 1-577 are counted on the 620-amino-acid human Lingo-1 (NP-116197); Expressed in HEK-293 cells; also called DN-HA; HA-tagged dominant negative of Lingo-1
T1 sequence: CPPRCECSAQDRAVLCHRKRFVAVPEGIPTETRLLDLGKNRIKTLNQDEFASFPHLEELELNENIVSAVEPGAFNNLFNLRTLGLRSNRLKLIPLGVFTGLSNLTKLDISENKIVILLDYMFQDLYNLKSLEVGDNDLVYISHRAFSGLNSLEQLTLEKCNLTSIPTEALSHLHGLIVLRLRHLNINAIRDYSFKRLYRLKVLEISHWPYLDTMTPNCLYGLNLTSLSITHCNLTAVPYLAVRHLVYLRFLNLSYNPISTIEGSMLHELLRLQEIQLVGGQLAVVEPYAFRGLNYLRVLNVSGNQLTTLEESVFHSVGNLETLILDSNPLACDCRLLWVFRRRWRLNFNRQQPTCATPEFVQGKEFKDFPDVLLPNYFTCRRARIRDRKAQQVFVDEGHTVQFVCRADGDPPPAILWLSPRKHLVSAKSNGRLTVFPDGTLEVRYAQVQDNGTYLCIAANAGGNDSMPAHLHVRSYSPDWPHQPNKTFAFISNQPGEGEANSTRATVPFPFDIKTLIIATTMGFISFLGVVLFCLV
Protocol: (§1) HEK-293 cells were transfected with the Lingo-1-RLuc and Lingo-1-YFP fusion proteins (the donor/acceptor ratio remains constant) and increasing concentrations of the whole Lingo-1 protein (Lingo-1-HA, amino acids 1-620) or the dominant negative thereof (DN-HA, amino acids 1-577) tagged with HA. The BRET measurement was carried out 48 hours after the transfection on live cells.
(§2) The BRET signal obtained between the Lingo-1-RLuc and Lingo-1-YFP proteins is therefore specific and can be modulated. […] In addition, when increasing concentrations of HA-tagged Lingo-1 protein were added (Lingo-1-HA at 0, 200, 400, 800, 1600 and 2600 ng), the BRET signal decreased (FIG. 5b); thereby making it possible to plot inhibition curves.

Lingo-1-HA = target: T2, Lingo-1-HA (human, UniProt Q96FE5 42-620); assay: as above
T2 construct: also called Lingo-HA; HA-tagged whole Lingo-1 protein
T2 sequence: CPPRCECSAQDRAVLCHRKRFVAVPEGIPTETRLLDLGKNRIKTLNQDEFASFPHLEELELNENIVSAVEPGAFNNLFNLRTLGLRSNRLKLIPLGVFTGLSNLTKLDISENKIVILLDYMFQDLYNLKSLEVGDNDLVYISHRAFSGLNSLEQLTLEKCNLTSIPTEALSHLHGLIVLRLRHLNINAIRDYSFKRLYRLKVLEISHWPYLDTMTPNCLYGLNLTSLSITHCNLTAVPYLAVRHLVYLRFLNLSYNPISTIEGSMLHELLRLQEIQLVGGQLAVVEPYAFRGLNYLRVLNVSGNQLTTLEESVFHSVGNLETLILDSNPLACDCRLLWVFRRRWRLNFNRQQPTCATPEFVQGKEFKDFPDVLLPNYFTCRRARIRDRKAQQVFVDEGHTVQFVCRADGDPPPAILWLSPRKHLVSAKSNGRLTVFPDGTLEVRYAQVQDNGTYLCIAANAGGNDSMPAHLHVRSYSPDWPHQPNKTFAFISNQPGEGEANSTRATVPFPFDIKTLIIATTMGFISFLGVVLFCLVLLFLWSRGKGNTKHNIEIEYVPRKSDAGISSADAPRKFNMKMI
Protocol: as §1, §2

B1: Lingo-1-RLuc (other)
chain: CPPRCECSAQDRAVLCHRKRFVAVPEGIPTETRLLDLGKNRIKTLNQDEFASFPHLEELELNENIVSAVEPGAFNNLFNLRTLGLRSNRLKLIPLGVFTGLSNLTKLDISENKIVILLDYMFQDLYNLKSLEVGDNDLVYISHRAFSGLNSLEQLTLEKCNLTSIPTEALSHLHGLIVLRLRHLNINAIRDYSFKRLYRLKVLEISHWPYLDTMTPNCLYGLNLTSLSITHCNLTAVPYLAVRHLVYLRFLNLSYNPISTIEGSMLHELLRLQEIQLVGGQLAVVEPYAFRGLNYLRVLNVSGNQLTTLEESVFHSVGNLETLILDSNPLACDCRLLWVFRRRWRLNFNRQQPTCATPEFVQGKEFKDFPDVLLPNYFTCRRARIRDRKAQQVFVDEGHTVQFVCRADGDPPPAILWLSPRKHLVSAKSNGRLTVFPDGTLEVRYAQVQDNGTYLCIAANAGGNDSMPAHLHVRSYSPDWPHQPNKTFAFISNQPGEGEANSTRATVPFPFDIKTLIIATTMGFISFLGVVLFCLVLLFLWSRGKGNTKHNIEIEYVPRKSDAGISSADAPRKFNMKMISRDPPVATMTSKVYDPEQRKRMITGPQWWARCKQMNVLDSFINYYDSEKHAENAVIFLHGNAASSYLWRHVVPHIEPVARCIIPDLIGMGKSGKSGNGSYRLLDHYKYLTAWFELLNLPKKIIFVGHDWGACLAFHYSYEHQDKIKAIVHAESVVDVIESWDEWPDIEEDIALIKSEEGEKMVLENNFFVETMLPSKIMRKLEPEEFAAYLEPFKEKGEVRRPTLSWPREIPLVKGGKPDVVQIVRNYNAYLRASDDLPKMFIESDPGFFSNAIVEGAKKFPNTEFVKVKGLHFSQEDAPDEMGKYIKSFVERVLKNEQ
notes: also called hLingo-1-RLuc
binding result (DN-Lingo-1-HA): binds
binding result (Lingo-1-HA): binds
